Laboratory results reported in patent US20050038228A1.

Assays:
[1] = target: IgG in healthy human serum (human); assay: batch adsorption as in Example 7 with γ-sterilized adsorbent and healthy human serum; IgG depletion from the supernatant
[2] = target: rheumatoid factor in serum of rheumatism patients (human); assay: batch adsorption with γ-sterilized adsorbent: 100 µL adsorbent with 600 µL rheumatism patient serum, 37° C., 2 h; rheumatoid factor depletion from the supernatant
[3] = target: anti-β1 adrenoceptor antibody in serum of patients with dilated cardiomyopathy (human); assay: batch adsorption with γ-sterilized adsorbent and dilated cardiomyopathy patient serum; antibody left in the supernatant measured by ELISA on the β1-adrenoceptor second loop peptide
[4] = target: immune complex prepared by heating a human IgG solution (10 mg/mL) at 63° C. for 15 minutes (human); assay: batch adsorption after γ-ray sterilization (25 kGy) from healthy human serum spiked with immune complex (20 µg/mL); supernatant measured with a C1q-CIC kit
[5] = target: immune complex prepared by heating a human IgG solution (10 mg/mL) at 63° C. for 15 minutes (human); assay: batch adsorption from healthy human serum spiked with immune complex (20 µg/mL); supernatant measured with a C1q-CIC kit
[6] = target: IgG in healthy human serum (human); assay: batch adsorption after γ-ray sterilization (25 kGy): 100 µL adsorbent with 300 µL healthy human serum, 37° C., 2 h; IgG depletion from the supernatant
[7] = target: IgG in healthy human serum (human); assay: batch adsorption: 100 µL adsorbent with 300 µL healthy human serum, 37° C., 2 h; IgG depletion from the supernatant against a saline control

Binder | Adsorption ratio of rheumatoid factor (%) [2] | Adsorption ratio of an immune complex after sterilization (%) [4] | Adsorption ratio of an immune complex before sterilization (%) [5] | further results
B04 peptide (peptide) peptide: MTTYKLVINGKTLKGETTTKAVDAETAERAFRKYATDNGVDGMWTYDPATKTFTVTEC |  | 91.6% | 92.4% | 
C15 peptide (peptide) peptide: MTTYKLVINGKTLKGETTTKAVDAETAERAFRQYANDNGVEGLWTYDPATKTFTVTEC |  | 84.1% | 85.2% | 
C24 peptide (peptide) peptide: MTTYKLVINGKTLKGETTTKAVDAETAERAFRKYANDNGVDGMWTYDPATKTFTVTEC |  | 80.5% | 81.5% | 
CO4 peptide (peptide) peptide: MTTYKLVINGKTLKGETTTKAVDAETAERAFRKYANDNGVEGIWTYDPATKTFTVTEC |  |  |  | Adsorption ratio of IgG after sterilization (%) [6]: 90.2%; Adsorption ratio of IgG before sterilization (%) [7]: 97.1%

Continued, in another order:

Adsorption ratio of rheumatoid factor (%) [2] | Adsorption ratio of an immune complex after sterilization (%) [4] | Adsorption ratio of an immune complex before sterilization (%) [5] | Binder | further results
56.3% |  |  | C36 peptide (peptide) peptide: MTTYKLVINGKTLKGETTTKAVDAETAERAFRQYATDNGVEGMWTYDPATKTFTVTEC | Adsorption ratio of IgG (%) [1]: 59.7%; Adsorption ratio of β1 adrenoceptor (%) [3]: 77.8%
34.4% |  |  | MG56 peptide (peptide) peptide: MTTYKLVINGKTLKGETTTKAVDAETAEKAFKQYANDNGVDGVWTYDDATKTFTVTE | 
